Data from US20210032365A1 (Chugai, published 2021).

T1: human C1s (human, UniProt P09871 16-688)
T1 construct: also called hC1s; serum-derived human C1s (CompTech)
T1 sequence: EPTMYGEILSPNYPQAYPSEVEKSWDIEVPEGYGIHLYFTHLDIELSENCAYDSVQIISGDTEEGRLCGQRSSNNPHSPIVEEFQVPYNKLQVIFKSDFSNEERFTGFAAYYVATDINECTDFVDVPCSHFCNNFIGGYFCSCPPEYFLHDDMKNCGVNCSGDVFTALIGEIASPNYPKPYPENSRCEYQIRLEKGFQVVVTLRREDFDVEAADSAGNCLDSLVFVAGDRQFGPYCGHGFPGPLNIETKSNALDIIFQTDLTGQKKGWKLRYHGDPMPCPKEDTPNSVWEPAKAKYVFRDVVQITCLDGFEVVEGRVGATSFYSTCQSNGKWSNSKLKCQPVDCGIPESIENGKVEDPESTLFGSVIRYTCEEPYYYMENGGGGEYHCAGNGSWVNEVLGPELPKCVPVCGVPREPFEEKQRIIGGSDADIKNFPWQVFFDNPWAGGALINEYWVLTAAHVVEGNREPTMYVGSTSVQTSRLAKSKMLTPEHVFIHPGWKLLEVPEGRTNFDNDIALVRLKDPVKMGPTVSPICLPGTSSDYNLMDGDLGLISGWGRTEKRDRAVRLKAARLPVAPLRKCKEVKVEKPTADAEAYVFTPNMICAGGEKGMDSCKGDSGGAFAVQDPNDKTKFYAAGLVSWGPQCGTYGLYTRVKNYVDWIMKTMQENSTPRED


Assays:
human C1s [1] = molecular target: T1, human C1s; assay: SPR, Ab captured; pH 5.8, 3 uM Ca
Protocol: (§1) All variants were transiently expressed and purified by the method described above. The binding affinity of each histidine-substituted variant at pH 7.4 and pH 5.8 was determined at 37 degrees C. using Biacore T200 instrument (GE Healthcare). Recombinant Protein A/G (Pierce) was immobilized onto all flow cells of a CM4 sensor chip using an amine coupling kit (GE Healthcare). Antibodies and analytes were prepared in 7(+) buffer (20 mM ACES, 150 mM NaCl, 1.2 mM CaCl2, 0.05% Tween 20, 0.005% NaN3, pH 7.4), 5(+) buffer (20 mM ACES, 150 mM NaCl, 1.2 mM CaCl2, 0.05% Tween 20, 0.005% NaN3, pH 5.8), or 5(−) buffer (20 mM ACES, 150 mM NaCl, 3 micro M CaCl2, 0.05% Tween 20, 0.005% NaN3, pH 5.8). Each antibody was captured onto the sensor surface by protein A/G. Antibody capture levels were aimed at 200 resonance unit (RU). Serum-derived human C1s (CompTech) or recombinant C1s prepared in EXAMPLE 1 was injected at 50 nM, followed by dissociation. The sensor surface was regenerated in each cycle with 10 mM Glycine-HCl, pH 1.5. […] The ratio of KD 5.8+ to KD 7.4+(“KD 5+/7+”) and that of KD 5.8− to KD 7.4+(“KD 5−/7+”) were calculated. When the KD 5+/7+ or KD 5−/7+ of a variant is larger than that of the parent antibody IPN009VH2-SG4GK/IPN009VK3-SK1, that variant is considered to be “pH”- or “pH and Ca”-dependent, respectively. When binding response in 5(+) buffer and/or in 5(−) buffer of a variant is much lower than that of IPN09VH2/IPN009VK3, that variant is also considered as “pH”- and/or “pH and Ca”-dependent. Therefore, such mutations are effective to generate “pH”- and/or “pH and Ca”-dependent antibody. To further enhance “pH” and/or “pH and Ca” dependency, a combination of histidine mutations was conducted. Antibodies with combinations of histidine mutations were evaluated using Biacore by the method described above.

human C1s [2] = molecular target: T1, human C1s; assay: SPR; KD pH 5.8 1.2 mM Ca / KD pH 7.4 1.2 mM Ca
Protocol: as §1

human C1s [3] = molecular target: T1, human C1s; assay: SPR, Ab captured; pH 7.4, 1.2 mM Ca
Protocol: as §1

human C1s [4] = molecular target: T1, human C1s; assay: SPR; KD pH 5.8 3 uM Ca / KD pH 7.4 1.2 mM Ca
Protocol: as §1

human C1s [5] = molecular target: T1, human C1s; assay: SPR, Ab captured; pH 5.8, 1.2 mM Ca
Protocol: as §1

| Kd (human C1s [1]) | koff (human C1s [1]) | kon (human C1s [1]) | KD 5(+)/7(+) (human C1s [2]) | Kd (human C1s [3]) | koff (human C1s [3]) | kon (human C1s [3]) | KD 5(-)/7(+) (human C1s [4]) | Kd (human C1s [5]) | koff (human C1s [5]) | kon (human C1s [5]) | Binder |
| --- | --- | --- | --- | --- | --- | --- | --- | --- | --- | --- | --- |
| 5.47 nM |  |  | 5.2 | 1.57 nM | 0.000596 s⁻¹ | 380000 M⁻¹ s⁻¹ | 3.5 | 8.19 nM | 0.00418 s⁻¹ | 511000 M⁻¹ s⁻¹ | C1_IPN92H0038-SG4GK/IPN93L0024-SK1 (antibody, human IgG4 S228P, kappa, name in Kabat numbering, also called IPN92H0038/IPN93L0024) heavy: not shown light: QIVLTQSPATLSLSPGERATLSCTASSSVSSSYLHWYQQKPGKAPKLWIYSTSNLASGVPSRFSGSGSGTDYTLTISSLQPEDFATYYCHQYYRLHPITFGQGTKLEIKRTVAAPSVFIFPPSDEQLKSGTASVVCLLNNFYPREAKVQWKVDNALQSGNSQESVTEQDSKDSTYSLSSTLTLSKADYEKHKVYACEVTHQGLSSPVTKSFNRGEC |
| 12.1 nM |  |  | 2.8 | 1.91 nM | 0.000808 s⁻¹ | 422000 M⁻¹ s⁻¹ | 6.3 | 5.33 nM | 0.00279 s⁻¹ | 524000 M⁻¹ s⁻¹ | C1_IPN92H0038-SG4GK/IPN93L0023-SK1 (antibody, human IgG4 S228P, kappa, name in Kabat numbering, V domains shown, also called IPN92H0038/IPN93L0023) VH: EVMLVESGGGLVKPGGSLRLSCAASGFTFSNYAMSWVRQAPGKGLEWVATISSGGSHTYYLDSVKHRFTISRDNSKDTLYLQMNSLRAEDTALYYCARLFTGHAMDYWGQGTLVTVSS VL: QIVLTQSPATLSLSPGERATLSCTASSSVSSSYLHWYQQKPGKAPKLWIYSTSNLASGVPSRFSGSGSGTDYTLTISSLQPEDFATYYCHQYYRHPPITFGQGTKLEIKR |
|  | 0.00934 s⁻¹ | 674000 M⁻¹ s⁻¹ | 0.7 |  | 0.00187 s⁻¹ | 522000 M⁻¹ s⁻¹ | 3.9 |  | 0.00209 s⁻¹ | 807000 M⁻¹ s⁻¹ | C1_IPN92H0033-SG4GK/IPN93L0031-SK1 (antibody, human IgG4 S228P, kappa, name in Kabat numbering, V domains shown, also called IPN92H0033/IPN93L0031) VH: EVMLVESGGGLVKPGGSLRLSCAASGFTFSNYAMSWVRQAPGKGLEWVATISSGGSHTYYLDSVKGRFTISRDNSKDTLYLQMNSLRAEDTALYYCARLFTGHAMDYWGQGTLVTVSS VL: QIVLTQSPATLSLSPGERATLSCTASSSVSSSYLHWYQQKPGKAPKLWIYSTSNLASGVPSRFSGSGSGTDYTLTISSLQPEDFATYYCHQYHRHHPITFGQGTKLEIKR |
| 8.33 nM | 0.00538 s⁻¹ | 646000 M⁻¹ s⁻¹ | 1 | 0.679 nM | 0.000282 s⁻¹ | 415000 M⁻¹ s⁻¹ | 12.3 | 0.668 nM | 0.000463 s⁻¹ | 693000 M⁻¹ s⁻¹ | C1_IPN92H0038-SG4GK/IPN009VK3-SK1 (antibody, human IgG4 S228P, kappa, name in Kabat numbering, V domains shown, also called IPN92H0038/IPN009VK3) VH: EVMLVESGGGLVKPGGSLRLSCAASGFTFSNYAMSWVRQAPGKGLEWVATISSGGSHTYYLDSVKHRFTISRDNSKDTLYLQMNSLRAEDTALYYCARLFTGHAMDYWGQGTLVTVSS VL: QIVLTQSPATLSLSPGERATLSCTASSSVSSSYLHWYQQKPGKAPKLWIYSTSNLASGVPSRFSGSGSGTDYTLTISSLQPEDFATYYCHQYYRLPPITFGQGTKLEIKR |

Second part, the binder before the results:

| Binder | Kd (human C1s [1]) | koff (human C1s [1]) | kon (human C1s [1]) | KD 5(+)/7(+) (human C1s [2]) | Kd (human C1s [3]) | koff (human C1s [3]) | kon (human C1s [3]) | KD 5(-)/7(+) (human C1s [4]) | Kd (human C1s [5]) | koff (human C1s [5]) | kon (human C1s [5]) |
| --- | --- | --- | --- | --- | --- | --- | --- | --- | --- | --- | --- |
| C1_IPN92H0033-SG4GK/IPN93L0029-SK1 (antibody, human IgG4 S228P, kappa, name in Kabat numbering, V domains shown, also called IPN92H0033/IPN93L0029) VH: EVMLVESGGGLVKPGGSLRLSCAASGFTFSNYAMSWVRQAPGKGLEWVATISSGGSHTYYLDSVKGRFTISRDNSKDTLYLQMNSLRAEDTALYYCARLFTGHAMDYWGQGTLVTVSS VL: QIVLTQSPATLSLSPGERATLSCTASSSVSSSYLHWYQQKPGKAPKLWIYSTSNLASGVPSRFSGSGSGTDYTLTISSLQPEDFATYYCHQYHRLHPITFGQGTKLEIKR | 9.79 nM | 0.00376 s⁻¹ | 384000 M⁻¹ s⁻¹ | 1.6 | 15.4 nM | 0.0074 s⁻¹ | 479000 M⁻¹ s⁻¹ | 0.6 | 24.6 nM | 0.0222 s⁻¹ | 905000 M⁻¹ s⁻¹ |
| C1_IPN92H0038-SG4GK/IPN93L0021-SK1 (antibody, human IgG4 S228P, kappa, name in Kabat numbering, V domains shown, also called IPN92H0038/IPN93L0021) VH: EVMLVESGGGLVKPGGSLRLSCAASGFTFSNYAMSWVRQAPGKGLEWVATISSGGSHTYYLDSVKHRFTISRDNSKDTLYLQMNSLRAEDTALYYCARLFTGHAMDYWGQGTLVTVSS VL: QIVLTQSPATLSLSPGERATLSCTASSSVSSSYLHWYQQKPGKAPKLWIYSTSNLASGVPSRFSGSGSGTDYTLTISSLQPEDFATYYCHQYHRLPPITFGQGTKLEIKR | 10.2 nM |  |  | 3.7 | 0.958 nM | 0.000477 s⁻¹ | 498000 M⁻¹ s⁻¹ | 10.6 | 3.53 nM | 0.00224 s⁻¹ | 634000 M⁻¹ s⁻¹ |
| C1_IPN92H0038-SG4GK/IPN93L0028-SK1 (antibody, human IgG4 S228P, kappa, name in Kabat numbering, V domains shown, also called IPN92H0038/IPN93L0028) VH: EVMLVESGGGLVKPGGSLRLSCAASGFTFSNYAMSWVRQAPGKGLEWVATISSGGSHTYYLDSVKHRFTISRDNSKDTLYLQMNSLRAEDTALYYCARLFTGHAMDYWGQGTLVTVSS VL: QIVLTQSPATLSLSPGERATLSCTASSSVSSSYLHWYQQKPGKAPKLWIYSTSNLASGVPSRFSGSGSGTDYTLTISSLQPEDFATYYCHQYHRHPPITFGQGTKLEIKR | 27.3 nM | 0.0174 s⁻¹ | 637000 M⁻¹ s⁻¹ | 7.5 | 2.36 nM | 0.00125 s⁻¹ | 528000 M⁻¹ s⁻¹ | 11.6 | 17.7 nM | 0.00789 s⁻¹ | 445000 M⁻¹ s⁻¹ |
| C1_IPN92H0033-SG4GK/IPN93L0030-SK1 (antibody, human IgG4 S228P, kappa, name in Kabat numbering, V domains shown, also called IPN92H0033/IPN93L0030) VH: EVMLVESGGGLVKPGGSLRLSCAASGFTFSNYAMSWVRQAPGKGLEWVATISSGGSHTYYLDSVKGRFTISRDNSKDTLYLQMNSLRAEDTALYYCARLFTGHAMDYWGQGTLVTVSS VL: QIVLTQSPATLSLSPGERATLSCTASSSVSSSYLHWYQQKPGKAPKLWIYSTSNLASGVPSRFSGSGSGTDYTLTISSLQPEDFATYYCHQYYRHHPITFGQGTKLEIKR | 2560 nM | 0.0603 s⁻¹ | 23500 M⁻¹ s⁻¹ | 3.7 | 24.2 nM | 0.0146 s⁻¹ | 603000 M⁻¹ s⁻¹ | 106 | 89.3 nM | 0.0449 s⁻¹ | 503000 M⁻¹ s⁻¹ |
